Test results reported in IntAct's records for PubMed 23035120.

B1: Protein kinase C and casein kinase substrate in neurons protein 1 (Mus musculus), Q61644 (parent)
chain: MSGSYDEASEEITDSFWEVGNYKRTVKRIDDGHRLCNDLMSCVQERAKIEKAYAQQLTDWAKRWRQLIEKGPQYGSLERAWGAMMTEADKVSELHQEVKNSLLNEDLEKVKNWQKDAYHKQIMGGFKETKEAEDGFRKAQKPWAKKMKELEAAKKAYHLACKEERLAMTREMNSKTEQSVTPEQQKKLVDKVDKCRQDVQKTQEKYEKVLEDVGKTTPQYMEGMEQVFEQCQQFEEKRLVFLKEVLLDIKRHLNLAENSSYMHVYRELEQAIRGADAQEDLRWFRSTSGPGMPMNWPQFEEWNPDLPHTTAKKEKQPKKAEGATLSNATGAVESTSQAGDRGSVSSYDRGQTYATEWSDDESGNPFGGNEANGGANPFEDDAKGVRVRALYDYDGQEQDELSFKAGDELTKLGEEDEQGWCRGRLDSGQLGLYPANYVEAI

Variants of: B1
Conditions: with Mapt

Variant | effect of a mutation on the interaction
P434L | disrupting interaction
